One protein from publication PMC8703291, “Non-Cationic RGD-Containing Protein Nanocarrier for Tumor-Targeted siRNA Delivery” (Pharmaceutics, 2021) can be followed below.

This data set deals with the molecule itself. The experiment in a line: non-reducing SDS-PAGE; purified dual-RGD under non-reducing conditions, Coomassie blue staining.

B1: dual-RGD-dsRBD-18his (dual-RGD) recombinant protein (designed binder)
chain: CDCRGDCFCAGDLSAGFFMEELNTYRQKQGVVLKYQELPNSGPPHDRRFTFQVIIDGREFPEGEGRSKKEAKNAAAKLAVEILNKEKKAVSPLLLTTTNSSEGLSMGNYIGLINRIAQKKRLTVNYEQCASGVHGPEGFHYKCKMGQKEYSIGTGSTKQEAKQLAAKLAYLQILSEETSVGRGDS
notes: cyclic RGD peptide RGD-4C appended to the N-terminal of dsRBD-18His; linear GRGDS (Gly-Arg-Gly-Asp-Ser) peptide added to the C-terminal of dsRBD-18His; MW ~26 kDa (monomer); also called dual-RGD carrier; source: E. coli BL21 (DE3), purified (nickel resin), dialysed against PBS with 10% glycerol and 0.1% β-ME
On to B1, for which the stoichiometry N (in general, a count of units in the complex or per binding partner) is 2.
